Sequences and labels used below:
B1: EPB41L3 (parent)
chain: FRFAPNHTKELEDKVIELHKSHRG
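Also: lentivirally expressed fusions sorted by FACS into six bins by GFP to DsRed ratio, PSI derived from sequencing read proportions per bin multiplied by bin number.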

Variants of B1 are the subject of this data set. Kind of data set: protein stability index of a GFP-peptide fusion (GPS, HEK-293T) (PSI 1-6); higher = more stable. The following applies: c terminus: a fixed tail appended.
FRFAPNETKELEDKVIELHKSHRG [H7E]: the protein stability index is 1.96.

Turning to FRFAPNFTKELEDKVIELHKSHRG [H7F], the protein stability index came to 1.73.

For FRFAPNMTKELEDKVIELHKSHRG [H7M], the protein stability index stood at 2.3.

Consider FRFAPNQTKELEDKVIELHKSHRG [H7Q], for which the protein stability index came to 2.28.

In the case of FRFAPNSTKELEDKVIELHKSHRG [H7S], the protein stability index stood at 1.93.

Turning to FRFAPNITKELEDKVIELHKSHRG [H7I], the protein stability index turned out to be 2.09.

Consider FRFAPNNTKELEDKVIELHKSHRG [H7N], for which the protein stability index is 2.16.

In the case of FRFAPNKTKELEDKVIELHKSHRG [H7K], the protein stability index turned out to be 1.88.

As to FRFAPNCTKELEDKVIELHKSHRG [H7C], the protein stability index is 1.47.

Regarding FRFAPNYTKELEDKVIELHKSHRG [H7Y], the protein stability index came out at 2.07.

With FRFAPNGTKELEDKVIELHKSHRG [H7G], the protein stability index is 2.42.

For the variant FRFAPNDTKELEDKVIELHKSHRG [H7D], the protein stability index worked out at 2.96.

As to FRFAPNPTKELEDKVIELHKSHRG [H7P], the protein stability index came out at 2.1.

On to FRFAPNHTFELEDKVIELHKSHRG [K9F], for which the protein stability index worked out at 2.14.

FRFAPNHTPELEDKVIELHKSHRG [K9P]: the protein stability index came out at 2.15.

With FRFAPNHTWELEDKVIELHKSHRG [K9W], the protein stability index worked out at 2.34.

FRFAPNHTQELEDKVIELHKSHRG [K9Q]: the protein stability index turned out to be 2.11.

FRFAPNHTDELEDKVIELHKSHRG [K9D]: the protein stability index came out at 1.82.

As for FRFAPNHTAELEDKVIELHKSHRG [K9A], the protein stability index was determined as 1.71.

As to FRFAPNHTHELEDKVIELHKSHRG [K9H], the protein stability index was 2.06.

With FRFAPNHTIELEDKVIELHKSHRG [K9I], the protein stability index came out at 2.56.

As for FRFAPNHTTELEDKVIELHKSHRG [K9T], the protein stability index came out at 1.37.

On to FRFAPNHTGELEDKVIELHKSHRG [K9G], for which the protein stability index came out at 2.04.

In the case of FRFAPNHTVELEDKVIELHKSHRG [K9V], the protein stability index was 2.24.

Turning to FRFAPNHTLELEDKVIELHKSHRG [K9L], the protein stability index is 1.47.

Consider FRFAPNHTNELEDKVIELHKSHRG [K9N], for which the protein stability index amounted to 2.39.

Turning to FRFAPNHTYELEDKVIELHKSHRG [K9Y], the protein stability index was 1.99.

Take FRFAPNHTCELEDKVIELHKSHRG [K9C]: the protein stability index was 2.44.

For FRFAPNHTRELEDKVIELHKSHRG [K9R], the protein stability index is 1.7.

FRFAPNHTMELEDKVIELHKSHRG [K9M]: the protein stability index is 1.77.

For FRFAPNHTSELEDKVIELHKSHRG [K9S], the protein stability index came out at 2.88.

Turning to FRFAPNHTEELEDKVIELHKSHRG [K9E], the protein stability index was determined as 2.21.

For the variant FRFHPNHTKELEDKVIELHKSHRG [A4H], the protein stability index came to 2.42.

As to FRFGPNHTKELEDKVIELHKSHRG [A4G], the protein stability index was 3.08.

As for FRFNPNHTKELEDKVIELHKSHRG [A4N], the protein stability index was determined as 3.77.

Consider FRFLPNHTKELEDKVIELHKSHRG [A4L], for which the protein stability index was found to be 2.82.

As to FRFKPNHTKELEDKVIELHKSHRG [A4K], the protein stability index was 3.06.

FRFFPNHTKELEDKVIELHKSHRG [A4F]: the protein stability index was 3.19.

Turning to FRFTPNHTKELEDKVIELHKSHRG [A4T], the protein stability index came to 2.24.

As for FRFRPNHTKELEDKVIELHKSHRG [A4R], the protein stability index amounted to 3.33.

On to FRFPPNHTKELEDKVIELHKSHRG [A4P], for which the protein stability index worked out at 2.98.

FRFCPNHTKELEDKVIELHKSHRG [A4C]: the protein stability index came out at 2.2.

On to FRFDPNHTKELEDKVIELHKSHRG [A4D], for which the protein stability index is 3.9.

Consider FRFSPNHTKELEDKVIELHKSHRG [A4S], for which the protein stability index was found to be 3.9.

As to FRFQPNHTKELEDKVIELHKSHRG [A4Q], the protein stability index was found to be 2.18.

As for FRFEPNHTKELEDKVIELHKSHRG [A4E], the protein stability index was 2.87.

FRFWPNHTKELEDKVIELHKSHRG [A4W]: the protein stability index was 2.41.

In the case of FRFMPNHTKELEDKVIELHKSHRG [A4M], the protein stability index is 2.65.

For the variant FRFIPNHTKELEDKVIELHKSHRG [A4I], the protein stability index was determined as 2.24.

As to FRFVPNHTKELEDKVIELHKSHRG [A4V], the protein stability index was determined as 1.82.

Take FRFYPNHTKELEDKVIELHKSHRG [A4Y]: the protein stability index is 2.88.

With FWFAPNHTKELEDKVIELHKSHRG [R2W], the protein stability index came out at 2.88.

As for FVFAPNHTKELEDKVIELHKSHRG [R2V], the protein stability index is 2.36.

With FYFAPNHTKELEDKVIELHKSHRG [R2Y], the protein stability index amounted to 3.27.

Take FSFAPNHTKELEDKVIELHKSHRG [R2S]: the protein stability index worked out at 3.56.

On to FQFAPNHTKELEDKVIELHKSHRG [R2Q], for which the protein stability index came to 3.89.

Consider FTFAPNHTKELEDKVIELHKSHRG [R2T], for which the protein stability index came to 3.79.

On to FRFAINHTKELEDKVIELHKSHRG [P5I], for which the protein stability index was found to be 2.63.

FRFADNHTKELEDKVIELHKSHRG [P5D]: the protein stability index worked out at 3.38.

For FRFAMNHTKELEDKVIELHKSHRG [P5M], the protein stability index turned out to be 2.31.

On to FRFACNHTKELEDKVIELHKSHRG [P5C], for which the protein stability index came out at 2.4.

On to FRFAQNHTKELEDKVIELHKSHRG [P5Q], for which the protein stability index amounted to 2.07.

For the variant FRFASNHTKELEDKVIELHKSHRG [P5S], the protein stability index is 1.92.

Regarding FRFAVNHTKELEDKVIELHKSHRG [P5V], the protein stability index was found to be 2.37.

In the case of FRFALNHTKELEDKVIELHKSHRG [P5L], the protein stability index amounted to 2.75.

Turning to FRFAGNHTKELEDKVIELHKSHRG [P5G], the protein stability index was 1.98.

As for FRFANNHTKELEDKVIELHKSHRG [P5N], the protein stability index is 2.24.

Regarding FRFAANHTKELEDKVIELHKSHRG [P5A], the protein stability index came to 2.73.

For FRFARNHTKELEDKVIELHKSHRG [P5R], the protein stability index stood at 2.15.

As for FRFAKNHTKELEDKVIELHKSHRG [P5K], the protein stability index is 3.47.

For the variant FRFAFNHTKELEDKVIELHKSHRG [P5F], the protein stability index came out at 1.24.

Consider FRFAYNHTKELEDKVIELHKSHRG [P5Y], for which the protein stability index was found to be 1.24.

Take FRFAENHTKELEDKVIELHKSHRG [P5E]: the protein stability index was determined as 3.49.

For FRFATNHTKELEDKVIELHKSHRG [P5T], the protein stability index worked out at 2.44.

On to FRFAHNHTKELEDKVIELHKSHRG [P5H], for which the protein stability index is 2.31.

Regarding FRFAPNHTKRLEDKVIELHKSHRG [E10R], the protein stability index was determined as 1.95.

With FRFAPNHTKCLEDKVIELHKSHRG [E10C], the protein stability index came out at 1.46.

On to FRFAPNHTKYLEDKVIELHKSHRG [E10Y], for which the protein stability index amounted to 1.97.

Take FRFAPNHTKSLEDKVIELHKSHRG [E10S]: the protein stability index stood at 2.07.

For the variant FRFAPNHTKKLEDKVIELHKSHRG [E10K], the protein stability index came to 2.59.

Take FRFAPNHTKILEDKVIELHKSHRG [E10I]: the protein stability index came to 2.07.

With FRFAPNHTKGLEDKVIELHKSHRG [E10G], the protein stability index amounted to 2.04.

Turning to FRFAPNHTKDLEDKVIELHKSHRG [E10D], the protein stability index was found to be 1.9.

As for FRFAPNHTKMLEDKVIELHKSHRG [E10M], the protein stability index was determined as 1.69.

With FRFAPNHTKQLEDKVIELHKSHRG [E10Q], the protein stability index stood at 1.68.

For the variant FRFAPNHTKNLEDKVIELHKSHRG [E10N], the protein stability index stood at 1.41.

Turning to FRFAPNHTKPLEDKVIELHKSHRG [E10P], the protein stability index stood at 1.63.

As for FRFAPNHTKFLEDKVIELHKSHRG [E10F], the protein stability index came out at 1.22.

For the variant FRFAPNHTKVLEDKVIELHKSHRG [E10V], the protein stability index worked out at 1.73.

For FRFAPNHTKLLEDKVIELHKSHRG [E10L], the protein stability index came to 1.9.

Consider FRFAPNHTKWLEDKVIELHKSHRG [E10W], for which the protein stability index came out at 1.21.

Consider FRFAPNHTKHLEDKVIELHKSHRG [E10H], for which the protein stability index was found to be 1.81.

Turning to FRFAPNHTKALEDKVIELHKSHRG [E10A], the protein stability index is 1.97.

Consider FRFAPNHTKTLEDKVIELHKSHRG [E10T], for which the protein stability index came to 1.84.

For the origin of these results see the supplement of paper PMC10567573.
